Columns and labels:
HT29 cells [1] = assay: Protease assay: RPM phage binding to protease-treated cells; details: 37° C.
Procedure: HT29 cells were incubated at 37° C. with either active or boiled Collagenase diluted 1:20 for 10 minutes, Trypsin-EDTA 0.25% (Gibco) for 5 minutes or Proteinase K (Gibco) diluted 1:600 for 1 minute. After incubation, cells were then incubated with RPM bearing phage as described above. The number of phage remaining bound was quantified by real time PCR.
(§1) In order to further this observation, HT29 cells were treated with active or boiled proteases to determine the effect of treatment on the ability of an RPM displaying phage to bind. HT29 cells were treated with active or boiled collagenase for 15 minutes, trypsin for 5 minutes, or proteinase K for 0.5 minutes at 37° C. After protease treatment, cells were washed, then an equal number of phage were added and allowed to bind. […] The decrease in phage binding to the HT29 cells was due to the protease activity since boiling the proteases abolished the effect with phage binding returning to levels of that observed for PBS treated cells (FIG. 6B). […] After treating HT29 cells with proteases as described above, MTT was added to the cells and incubated for 45 minutes at 37° C. After incubation, the cells were solubilized with 0.1N HCl in isopropanol and the absorbance due to MTT incorporation was determined.

HT29 cells [2] = assay: MTT viability of protease-treated cells; type: cell-based; details: MTT 45 minutes at 37° C. after protease treatment
Procedure: as §1

B1: proteinase K: protease used to treat HT29 cells (protein, UniProt P06873 106-384, looked up)
Proteinase K: AAQTNAPWGLARISSTSPGTSTYYYDESAGQGSCVYVIDTGIEASHPEFEGRAQMVKTYYYSSRDGNGHGTHCAGTVGSRTYGVAKKTQLFGVKVLDDNGSGQYSTIIAGMDFVASDKNNRNCPKGVVASLSLGGGYSSSVNSAAARLQSSGVMVAVAAGNNNADARNYSPASEPSVCTVGASDRYDRRSSFSNYGSVLDIFGPGTSILSTWIGGSTRSISGTSMATPHVAGLAAYLMTLGKTTAASACRYIADTANKGDLSNIPFGTVNLLAYNNYQA
decrease of RPM phage binding to active protease treated HT29 cells (HT29 cells [1]): 90%
average absorbance (MTT incorporation) of treated cells (HT29 cells [2]): 0.183
